From US20100209956A1

Target: soluble form of hepsin encompassing the entire extracellular domain (Arg45-Leu417) and a C-terminal His8 tag (human) (UniProt P05981)
Assay: cell-based or functional assay

Sequence of soluble form of hepsin encompassing the entire extracellular domain (Arg45-Leu417) and a C-terminal His8 tag (human) (P05981 45-162 limits assumed, chain 1 of 2): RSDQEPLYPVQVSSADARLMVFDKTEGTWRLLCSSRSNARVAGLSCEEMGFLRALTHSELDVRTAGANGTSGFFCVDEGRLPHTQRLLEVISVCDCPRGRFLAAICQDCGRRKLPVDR
Sequence of soluble form of hepsin encompassing the entire extracellular domain (Arg45-Leu417) and a C-terminal His8 tag (human) (P05981 other isoform, or with tags, fused parts or gaps limits assumed, chain 2 of 2): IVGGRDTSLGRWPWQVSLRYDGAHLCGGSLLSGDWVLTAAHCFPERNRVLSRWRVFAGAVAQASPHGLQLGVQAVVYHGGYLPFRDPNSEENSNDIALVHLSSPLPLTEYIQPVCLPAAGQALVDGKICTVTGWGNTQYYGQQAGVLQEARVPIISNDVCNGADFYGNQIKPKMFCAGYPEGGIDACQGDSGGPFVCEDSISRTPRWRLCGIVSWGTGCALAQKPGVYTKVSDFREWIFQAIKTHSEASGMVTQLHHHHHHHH

IC50, inhibition of hepsin enzymatic activity towards S2366 (amidolytic assay) | activity in amidolytic assays as percent of wildtype and KD2 mutant | fold reduction of inhibitory activity against wildtype sHAI-1B (amidolytic assay) | Binder
1.3 nM |  |  | soluble form of HAI-2 (sHAI-2), extracellular domain Ala28-Lys197 with a C-terminal His8 tag with a Gly spacer (protein, human, not shown: small tags and cut ends) ADRERSIHDFCLVSKVVGRCRASMPRWWYNVTDGSCQLFVYGGCDGNSNNYLTKEECLKKCATVTENATGDLATSRNAADSSVPSAPRRQDSEDHSSDMFNYEEYCTANAVTGPCRASFPRWYFDVERNSCNNFIYGGCRGNKNSYRSEEACMLRCFRQQENPPLPLGSKHHHHHHHH
18.2 nM |  |  | sHAI-1B(K401A) (protein, UniProt O43278 36-465, looked up) GPPPAPPGLPAGADCLNSFTAGVPGFVLDTNASVSNGATFLESPTVRRGWDCVRACCTTQNCNLALVELQPDRGEDAIAACFLINCLYEQNFVCKFAPREGFINYLTREVYRSYRQLRTQGFGGSGIPKAWAGIDLKVQPQEPLVLKDVENTDWRLLRGDTDVRVERKDPNQVELWGLKEGTYLFQLTVTSSDHPEDTANVTVTVLSTKQTEDYCLASNKVGRCRGSFPRWYYDPTEQICKSFVYGGCLGNKNNYLREEECILACRGVQGGPLRGSSGAQATFPQGPSMERRHPVCSGTCQPTQFRCSNGCCIDSFLECDDTPNCPDASDEAACEKYTSGFDELQRIHFPSDKGHCVDLPDTGLCAESIPRWYYNPFSEHCARFTYGGCYGNKNNFEEEQQCLESCRGISKKDVFGLRREIPIPSTGSVE
> 1000 nM | < 1% | > 47 fold | sHAI-1B(R260A) (protein, UniProt O43278 36-465, looked up) GPPPAPPGLPAGADCLNSFTAGVPGFVLDTNASVSNGATFLESPTVRRGWDCVRACCTTQNCNLALVELQPDRGEDAIAACFLINCLYEQNFVCKFAPREGFINYLTREVYRSYRQLRTQGFGGSGIPKAWAGIDLKVQPQEPLVLKDVENTDWRLLRGDTDVRVERKDPNQVELWGLKEGTYLFQLTVTSSDHPEDTANVTVTVLSTKQTEDYCLASNKVGRCAGSFPRWYYDPTEQICKSFVYGGCLGNKNNYLREEECILACRGVQGGPLRGSSGAQATFPQGPSMERRHPVCSGTCQPTQFRCSNGCCIDSFLECDDTPNCPDASDEAACEKYTSGFDELQRIHFPSDKGHCVDLPDTGLCKESIPRWYYNPFSEHCARFTYGGCYGNKNNFEEEQQCLESCRGISKKDVFGLRREIPIPSTGSVE
